Reference: publication PMC11729338, “Molecular Characterization and Interaction between Human VEGF-D and VEGFR-3” (Journal of Microbiology and Biotechnology, 2024)
Substitutions are numbered along the chain they refer to. In names and notes the source's numbering stands. Blank lines part the entries; values can stand above or below the binder they belong to.

Columns and labels:
[1] = target: T1, His-tagged human VEGFR-3 (residues 30-326) (human, UniProt P35916 30-326); experiment: SPR; VEGFR-3 immobilised on a CM5 chip by amine coupling (2,300 response units); Biacore T100, 25°C; running buffer 50 mM HEPES (pH 7.7), 50 mM NaCl or 50 mM Tris-HCl (7.82), 50 mM NaCl; VEGF-D or mutant injected at 0.125, 0.25, 0.5, 1 uM, 10 ul/min; details: both partners purified
T1 construct: Vascular endothelial growth factor receptor 3 (VEGFR-3), human, residues 30-326 (extracellular Ig domains 1-3); The primers fit P30 to I326; the reverse primer has no stop codon, so vector residues and a second His tag may follow at the C-terminus (my surmise); also called Wild-type VEGFR-3; extracellular domains 1, 2 and 3
T1 sequence (looked up): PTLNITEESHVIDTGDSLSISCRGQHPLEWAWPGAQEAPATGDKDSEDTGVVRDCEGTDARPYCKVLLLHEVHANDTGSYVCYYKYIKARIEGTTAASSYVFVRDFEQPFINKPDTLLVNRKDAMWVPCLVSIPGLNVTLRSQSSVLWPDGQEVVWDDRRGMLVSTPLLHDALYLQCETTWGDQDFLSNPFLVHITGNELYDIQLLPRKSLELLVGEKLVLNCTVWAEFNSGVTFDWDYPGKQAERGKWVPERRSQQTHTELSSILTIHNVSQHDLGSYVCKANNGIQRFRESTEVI

[2] = target: T2, His-tagged VEGFR-3 (residues 30-326) (human, UniProt P35916 30-326); experiment: SPR; VEGFR-3 immobilised on a CM5 chip by amine coupling (2,300 response units); VEGF-D or mutant injected at 0.125, 0.25, 0.5 and 1 uM, 10 ul/min; Biacore T100, 25 °C; 50 mM HEPES (pH 7.7), 50 mM NaCl or 50 mM Tris-HCl (7.82), 50 mM NaCl; details: both partners purified
T2 construct: human VEGFR-3, residues 30-326 (extracellular domains 1, 2 and 3); Cloned in pET-28a; In the functional rows it stands for the VEGFR-3 of MDA-MB-231 cells; also called His-VEGFR-3; extracellular domains 1, 2, and 3; source: for SEC co-lysed with His-tagged VEGF-D cells and purified together on Ni-NTA
T2 sequence (looked up): T1 sequence (looked up)

[3] = target: T2, His-tagged VEGFR-3 (residues 30-326); experiment: cell-based or functional assay
[4] = target: T2, His-tagged VEGFR-3 (residues 30-326); experiment: SEC; His-tagged VEGF-D and His-tagged VEGFR-3 cells co-lysed, purified together on Ni-NTA, incubated 24 h at 4 °C; Superdex 200 10/300 GL, 50 mM Tris-HCl (pH 7.82), 200 mM NaCl, 0.1% glycerol, sample 17 mg/ml, 0.4 ml/min; fractions by SDS-PAGE; details: partners not purified
[5] = target: T2, His-tagged VEGFR-3 (residues 30-326); experiment: pull-down; 50 ug GST-tagged VEGF-D or mutant on Glutathione Sepharose 4 Fast Flow beads, 50 ug His-VEGFR-3 in 1X PBS, on ice overnight; eluted with 30 mM glutathione; Western blot with anti-His and anti-GST; details: both partners purified

B1: His-tagged wild-type human VEGF-D (residues 89-205) (ligand, UniProt O43915 89-205, looked up)
chain: FAATFYDIETLKVIDEEWQRTQCSPRETCVEVASELGKSTNTFFKPPCVNVFRCGGCCNEESLICMNTSTSYISKQLFEISVPLTSVPELVPVKVANHTGCKCLPTAPRHPYSIIRR
notes: Vascular endothelial growth factor D (VEGF-D), human, residues 89-205 (major mature form); Cloned in pET-28a; also called Wild-type VEGF-D; major form
Kd [1]: 268 nM | koff [1]: 0.00115 s⁻¹ | kon [1]: 4310 M⁻¹ s⁻¹

B4: His-tagged VEGF-D (residues 89-205), wild type (ligand, human, UniProt O43915 89-205, looked up)
chain: B1 chain
notes: human VEGF-D, residues 89-205 (major mature form); Cloned in pET-28a; also called wild-type VEGF-D; mature VEGF-D; source: for SEC co-lysed with His-tagged VEGFR-3 cells and purified together on Ni-NTA
Kd [2]: 270 nM | MTT cell viability of MDA-MB-231 cells, 0-600 ng VEGF-D, 24 h; EC50 [3]: 238 ng | stoichiometry N [4]: 1

B8: GST-tagged VEGF-D (residues 89-205) E105A (ligand, human, UniProt O43915 89-205, looked up)
chain: B1 chain with E17A
notes: human VEGF-D, residues 89-205, E105A; Cloned in pGEX-4T-1
binding result [5]: binds

The remaining lines, values ahead:

Kd [1]: 533 nM | koff [1]: 0.00103 s⁻¹ | kon [1]: 1940 M⁻¹ s⁻¹
B2: His-tagged VEGF-D (residues 89-205) D103A/Q110A (ligand, human, UniProt O43915 89-205, looked up)
chain: B1 chain with D15A, Q22A
notes: Vascular endothelial growth factor D (VEGF-D), human, residues 89-205, double mutant D103A/Q110A; same limits as Dm1 (see its note on the primers); source: E. coli BL21 (DE3), purified

Kd [1]: 956 nM | koff [1]: 0.0015 s⁻¹ | kon [1]: 1570 M⁻¹ s⁻¹
B3: His-tagged VEGF-D (residues 89-205) I102A/E105A (ligand, human, UniProt O43915 89-205, looked up)
chain: B1 chain with I14A, E17A
notes: Vascular endothelial growth factor D (VEGF-D), human, residues 89-205, double mutant I102A/E105A; same limits as Dm1 (see its note on the primers); source: E. coli BL21 (DE3), purified

Kd [2]: 530 nM
B5: His-tagged VEGF-D (residues 89-205) D103A/Q110A (ligand, human, UniProt O43915 89-205, looked up)
chain: B1 chain with D15A, Q22A
notes: human VEGF-D, residues 89-205, D103A and Q110A; also called D103A/Q110A mutant; double mutated form of VEGF-D; source: E. coli BL21 (DE3), purified

Kd [2]: 960 nM
B6: His-tagged VEGF-D (residues 89-205) I102A/E105A (ligand, human, UniProt O43915 89-205, looked up)
chain: B1 chain with I14A, E17A
notes: human VEGF-D, residues 89-205, I102A and E105A; also called double mutated form of VEGF-D; source: E. coli BL21 (DE3), purified

binding result [5]: binds
B7: GST-tagged VEGF-D (residues 89-205) I102A (ligand, human, UniProt O43915 89-205, looked up)
chain: B1 chain with I14A
notes: human VEGF-D, residues 89-205, I102A; Cloned in pGEX-4T-1
